What all share (test): cleavage_in_vitro
For data set [1], the system named is T1, NcoI-HF A2T/R31A (Nocardia corallina).
T1 sequence: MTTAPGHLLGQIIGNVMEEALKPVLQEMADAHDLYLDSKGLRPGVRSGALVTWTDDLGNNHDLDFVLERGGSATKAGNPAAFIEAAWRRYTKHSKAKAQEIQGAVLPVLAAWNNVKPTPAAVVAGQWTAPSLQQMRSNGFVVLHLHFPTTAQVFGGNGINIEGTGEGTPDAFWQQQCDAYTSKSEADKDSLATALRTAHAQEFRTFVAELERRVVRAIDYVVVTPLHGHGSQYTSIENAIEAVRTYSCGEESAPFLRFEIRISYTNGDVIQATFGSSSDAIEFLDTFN
The note with it: NEB4, 37 C, Mg2+; Table 3 prints >=64000; FI NEB1-3: >=4000, >=4000, >=1000.

Data set [2] concerns T2, SspI (Sphaerotilus species).
T2 sequence: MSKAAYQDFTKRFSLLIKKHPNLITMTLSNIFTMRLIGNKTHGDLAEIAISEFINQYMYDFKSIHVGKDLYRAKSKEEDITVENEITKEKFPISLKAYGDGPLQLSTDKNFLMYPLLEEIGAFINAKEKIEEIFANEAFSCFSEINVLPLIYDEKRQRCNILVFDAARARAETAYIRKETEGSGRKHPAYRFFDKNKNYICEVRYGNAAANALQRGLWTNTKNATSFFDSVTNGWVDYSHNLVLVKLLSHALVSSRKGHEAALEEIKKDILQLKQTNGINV
As to conditions: NEB4, 37 C, Mg2+; FI NEB1-3: 64, 16, 32.

Data set [3] has as its system T3, BsmBI-HF N185Y/R232A (Bacillus stearothermophilus).
T3 sequence: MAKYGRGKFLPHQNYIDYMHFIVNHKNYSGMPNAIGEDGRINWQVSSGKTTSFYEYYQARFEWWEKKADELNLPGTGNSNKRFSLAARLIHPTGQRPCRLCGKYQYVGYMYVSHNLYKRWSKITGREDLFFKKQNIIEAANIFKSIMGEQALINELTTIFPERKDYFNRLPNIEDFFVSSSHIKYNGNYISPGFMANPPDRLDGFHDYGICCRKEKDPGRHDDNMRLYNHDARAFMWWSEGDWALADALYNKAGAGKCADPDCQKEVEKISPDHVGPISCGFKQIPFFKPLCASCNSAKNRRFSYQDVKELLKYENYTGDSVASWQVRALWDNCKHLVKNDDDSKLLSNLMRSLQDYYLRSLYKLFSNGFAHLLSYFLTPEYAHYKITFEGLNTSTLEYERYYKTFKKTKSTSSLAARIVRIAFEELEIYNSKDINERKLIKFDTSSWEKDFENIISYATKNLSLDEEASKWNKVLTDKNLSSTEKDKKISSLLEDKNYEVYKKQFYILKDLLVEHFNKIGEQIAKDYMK
The note with it: NEB4, 55 C, Mg2+; listed as BsmBI; FI NEB1-3: 2, >=500, >=64.

Data set [4] deals with T4, SphI-HF K100A (Streptomyces phaeochromogenes).
T4 sequence: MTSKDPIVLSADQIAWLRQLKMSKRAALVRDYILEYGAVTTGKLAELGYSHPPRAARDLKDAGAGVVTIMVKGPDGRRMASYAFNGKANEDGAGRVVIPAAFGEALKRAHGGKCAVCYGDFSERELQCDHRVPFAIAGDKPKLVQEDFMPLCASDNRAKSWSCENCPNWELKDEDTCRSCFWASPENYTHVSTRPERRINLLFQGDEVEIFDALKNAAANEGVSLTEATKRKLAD
The note with it: NEB4, 37 C, Mg2+; FI NEB1-3: 4000, 2000, 250.

Data set [5] addresses T5, PstI (Providencia stuartii 164) (UniProt P00640).
T5 sequence: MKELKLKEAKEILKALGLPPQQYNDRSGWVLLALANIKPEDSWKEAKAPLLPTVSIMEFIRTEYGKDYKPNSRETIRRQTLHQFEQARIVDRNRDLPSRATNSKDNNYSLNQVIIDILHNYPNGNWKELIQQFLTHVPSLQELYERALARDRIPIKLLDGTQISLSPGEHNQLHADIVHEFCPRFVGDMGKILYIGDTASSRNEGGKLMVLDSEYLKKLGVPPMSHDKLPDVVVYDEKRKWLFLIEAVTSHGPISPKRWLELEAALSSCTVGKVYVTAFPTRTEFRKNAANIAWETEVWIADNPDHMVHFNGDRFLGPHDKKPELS
As to conditions: NEB4, 37 C, Mg2+; FI NEB1-3: 64, 32, 120.

For lambda phage DNA, the activity (fidelity index) in data set [1] was > 16000; in data set [2], 16; in data set [3], > 500; in data set [4], 8000; in data set [5], 8.

For the origin of these results see patent US20130115678.
